Measurements taken from patent US20250152746A1, “BASE EDITING OF ANGPTL3 AND METHODS OF USING SAME FOR TREATMENT OF DISEASE” (Verve Therapeutics, Inc., priority 2020, published 2025).

B1: GA130: ANGPTL3 gRNA; protospacer ATGATGGTAAGACACTTTGG (SEQ ID NO: 128) (nucleic acid)
guide: AUGATGGTAAGACACTTTGGGTTTTAGAGCTAGAAATAGCAAGTTAAAATAAGGCTAGTCCGTTATCAACTTGAAAAAGTGGCACCGAGTCGGTGCTTTT
modifications: 2'-O-methyl at 1, 2, other sugars, backbone and T or U not given here; further chemistry not fully specified
B2: GA137: ANGPTL3 gRNA; protospacer TATCAGGTAAAACCTGTCTA (SEQ ID NO: 135) (nucleic acid)
guide: UATCAGGTAAAACCTGTCTAGTTTTAGAGCTAGAAATAGCAAGTTAAAATAAGGCTAGTCCGTTATCAACTTGAAAAAGTGGCACCGAGTCGGTGCTTTT
modifications: 2'-O-methyl at 1, 2, other sugars, backbone and T or U not given here; further chemistry not fully specified
B3: GA128: ANGPTL3 gRNA; protospacer TGAAGAAAGGGAGTAGTTCT (SEQ ID NO: 126) (nucleic acid)
guide: UGAAGAAAGGGAGTAGTTCTGTTTTAGAGCTAGAAATAGCAAGTTAAAATAAGGCTAGTCCGTTATCAACTTGAAAAAGTGGCACCGAGTCGGTGCTTTT
modifications: 2'-O-methyl at 1, 2, other sugars, backbone and T or U not given here; further chemistry not fully specified
B4: GA145: ANGPTL3 gRNA; protospacer CATTATATTCAGGTAGTCCA (SEQ ID NO: 143) (nucleic acid)
guide: CATTATATTCAGGTAGTCCAGTTTTAGAGCTAGAAATAGCAAGTTAAAATAAGGCTAGTCCGTTATCAACTTGAAAAAGTGGCACCGAGTCGGTGCTTTT
modifications: 2'-O-methyl at 1, 2, other sugars and backbone not given here; further chemistry not fully specified
B5: GA132: ANGPTL3 gRNA; protospacer GGAAGATAGAGAAATTTCTG (SEQ ID NO: 130) (nucleic acid)
guide: GGAAGATAGAGAAATTTCTGGTTTTAGAGCTAGAAATAGCAAGTTAAAATAAGGCTAGTCCGTTATCAACTTGAAAAAGTGGCACCGAGTCGGTGCTTTT
modifications: 2'-O-methyl at 1, 2, other sugars and backbone not given here; further chemistry not fully specified
B6: GA131: ANGPTL3 gRNA; protospacer GAAGATAGAGAAATTTCTGT (SEQ ID NO: 129) (nucleic acid)
guide: GAAGATAGAGAAATTTCTGTGTTTTAGAGCTAGAAATAGCAAGTTAAAATAAGGCTAGTCCGTTATCAACTTGAAAAAGTGGCACCGAGTCGGTGCTTTT
modifications: 2'-O-methyl at 1, 2, other sugars and backbone not given here; further chemistry not fully specified
B7: GA143: ANGPTL3 gRNA; protospacer TTAATTCAACATCGAATAGA (SEQ ID NO: 141) (nucleic acid)
guide: UUAATTCAACATCGAATAGAGTTTTAGAGCTAGAAATAGCAAGTTAAAATAAGGCTAGTCCGTTATCAACTTGAAAAAGTGGCACCGAGTCGGTGCTTTT
modifications: 2'-O-methyl at 1, 2, other sugars, backbone and T or U not given here; further chemistry not fully specified
B8: GA151: ANGPTL3 gRNA; protospacer GAGAACTACAAATATGGTTT (SEQ ID NO: 149) (nucleic acid)
guide: GAGAACTACAAATATGGTTTGTTTTAGAGCTAGAAATAGCAAGTTAAAATAAGGCTAGTCCGTTATCAACTTGAAAAAGTGGCACCGAGTCGGTGCTTTT
modifications: 2'-O-methyl at 1, 2, other sugars and backbone not given here; further chemistry not fully specified
B9: GA127: ANGPTL3 gRNA; protospacer AACATGATGGTAAGACACTT (SEQ ID NO: 125) (nucleic acid)
guide: AACATGATGGTAAGACACTTGTTTTAGAGCTAGAAATAGCAAGTTAAAATAAGGCTAGTCCGTTATCAACTTGAAAAAGTGGCACCGAGTCGGTGCTTTT
modifications: 2'-O-methyl at 1, 2, other sugars and backbone not given here; further chemistry not fully specified
B10: GA148: ANGPTL3 gRNA; protospacer ACAAAACTTCAATGAAACGT (SEQ ID NO: 146) (nucleic acid)
guide: ACAAAACTTCAATGAAACGTGTTTTAGAGCTAGAAATAGCAAGTTAAAATAAGGCTAGTCCGTTATCAACTTGAAAAAGTGGCACCGAGTCGGTGCTTTT
modifications: 2'-O-methyl at 1, 2, other sugars and backbone not given here; further chemistry not fully specified
B11: GA141: ANGPTL3 gRNA; protospacer TTGAGAGTTGCTGGGTCTGA (SEQ ID NO: 139) (nucleic acid)
guide: UUGAGAGTTGCTGGGTCTGAGTTTTAGAGCTAGAAATAGCAAGTTAAAATAAGGCTAGTCCGTTATCAACTTGAAAAAGTGGCACCGAGTCGGTGCTTTT
modifications: 2'-O-methyl at 1, 2, other sugars, backbone and T or U not given here; further chemistry not fully specified
B12: GA142: ANGPTL3 gRNA; protospacer TGAAAAACTTGAGAGTTGCT (SEQ ID NO: 140) (nucleic acid)
guide: UGAAAAACTTGAGAGTTGCTGTTTTAGAGCTAGAAATAGCAAGTTAAAATAAGGCTAGTCCGTTATCAACTTGAAAAAGTGGCACCGAGTCGGTGCTTTT
modifications: 2'-O-methyl at 1, 2, other sugars, backbone and T or U not given here; further chemistry not fully specified

What follows are molecules tested on ANGPTL3 gene (assay: ANGPTL3 gRNA/SpCas9 editing in primary human hepatocytes (Table 3)). Settings: not given.
Format: cell-based
Method: (§1) In set of experiments, PCSK9 gRNAs were co-transfected with an equivalent amount (1:1 ratio by weight) of in vitro transcribed commercially available SpCas9 mRNA MS002 purchased from TriLink Biotechnologies into primary human hepatocytes at 2500, 500, or 100 ng/RNA/mL and processed as described in detailed methods. Extracted genomic DNA was analyzed for gene editing at the target site with next-generation sequencing of PCR amplicons generated around the target sites. Samples were prepared using the Nextera XT DNA library preparation kit (Illumina) according to the manufacturer's protocol. Briefly, two rounds of PCR were performed first to amplify the region of interest and second to add DNA sequences required for next generation sequencing and sample identification to the initial product. The final amplicon was sequenced on the Illumina MiSeq instrument according to the manufacturer's protocol. A wide range of editing activities (Table 2) were observed. In a second set of experiments, ANGPTL3 gRNAs were co-transfected with an equivalent amount of in vitro transcribed SpCas9 mRNA (1:1 ratio by weight) into primary human hepatocytes and processed and analyzed similarly (Table 3).
(§2) Plating, culturing, and transfection of primary hepatocytes. Primary human liver hepatocytes (PHH) and primary cynomolgus liver hepatocytes (PCH) from BioIVT were cultured per the manufacturer's protocol. Briefly, primary human hepatocytes and primary cyno hepatocytes were obtained as frozen aliquots from BioIVT. Four lots of primary human hepatocytes, each derived from a de-identified individual donor, were used for the experiments: STL (main donor) was used for all experiments, including screening experiments and off-target experiments; HLY, JLP, and TLY were used for off-target experiments. The HFG lot of primary cyno hepatocytes were used for experiments. Following the manufacturer's instructions, cells were thawed and rinsed prior to plating in 24-well plates that had been coated with bovine collagen overnight, with a density of approximate 350,000 cells/well in INVITROGRO hepatocyte medium supplemented with TORPEDO antibiotic mix (BioIVT). The cells were thawed and resuspended in hepatocyte thawing medium followed by centrifugation at 100 g for 10 min at 4° C. The supernatant was discarded, and the pelleted cells resuspended in hepatocyte plating medium. Each vial contains approximately 5 million cells that were used for plating one 24-well plate. Plated cells were allowed to settle and adhere for 4-6 h in a tissue culture incubator at 37° C. under 5% CO2 atmosphere. After incubation, cells were checked for monolayer formation. The incubating media were then replaced with fresh hepatocyte maintenance media (complete INVITROGRO medium obtained from BioIVT, the cell line provider). The cells thus became ready for transfection. Each of the gRNAs were co-transfected with an equivalent amount of in vitro transcribed ABE8.8 mRNA (1:1 ratio by molecular weight) into primary human hepatocytes via MessengerMax reagent (Lipofectamine), using various dilutions to assess for editing activity at different concentrations of test article. MessengerMAX from Thermo Fisher is used for transfection. Solution A: desired amount of guide RNA is mixed with 1:1 wt ratio of mRNA in OptiMEM. Solution B: MessengerMAX in OptiMEM. After mixing solutions A and B, the mixture was incubated at room temperature for 20 min. 60 μL of the incubated solution was added dropwise to each cell wells. For protospacer sequences that were a perfect match to the corresponding cynomolgous monkey PCSK9 or ANGPTL3 gene sequence, each gRNA was also co-transfected with an equivalent amount of ABE8.8 mRNA (1:1 ratio by molecular weight) into primary cynomolgous hepatocytes, and followed the same transfection protocol. The cells were then allowed to remain at 37° C. for 3 days. […]

Q: With B1 as the molecule, how does the “Human Primary Hepatocyte Editing % 100 ng/ml” value read?
A: 7.51%

Q: And the “Human Primary Hepatocyte Editing % 500 ng/mL” value?
A: 17.09%

Q: How did the “Human Primary Hepatocyte Editing % 100 ng/ml” value turn out when B2 was run?
A: 11.44%

Q: And the “Human Primary Hepatocyte Editing % 500 ng/mL” value?
A: 29.70%

Q: How did the “Human Primary Hepatocyte Editing % 100 ng/ml” value turn out when B3 was run?
A: 10.29%

Q: What about the “Human Primary Hepatocyte Editing % 500 ng/mL” value of the same molecule?
A: 25.39%

Q: Which “Human Primary Hepatocyte Editing % 100 ng/ml” value does the source give for B4 here?
A: 12.55%

Q: What about the “Human Primary Hepatocyte Editing % 500 ng/mL” value of the same molecule?
A: 26.33%

Q: Which “Human Primary Hepatocyte Editing % 100 ng/ml” value does the source give for B5 here?
A: 15.25%

Q: And the “Human Primary Hepatocyte Editing % 500 ng/mL” value?
A: 28.39%

Q: Which “Human Primary Hepatocyte Editing % 500 ng/mL” value does the source give for B6 here?
A: 18.64%

Q: Which “Human Primary Hepatocyte Editing % 100 ng/ml” value does the source give for B7 here?
A: 9.30%

Q: What about the “Human Primary Hepatocyte Editing % 500 ng/mL” value of the same molecule?
A: 19.36%

Q: Which results are given for B8?
A: Human Primary Hepatocyte Editing % 100 ng/ml: 10.56%; Human Primary Hepatocyte Editing % 500 ng/mL: 31.88%

Q: For B9, which “Human Primary Hepatocyte Editing % 100 ng/ml” value is on record?
A: 5.77%

Q: And the “Human Primary Hepatocyte Editing % 500 ng/mL” value?
A: 18.74%

Q: How did the “Human Primary Hepatocyte Editing % 100 ng/ml” value turn out when B10 was run?
A: 12.01%

Q: And the “Human Primary Hepatocyte Editing % 500 ng/mL” value?
A: 31.67%

Q: What does the source list for B11?
A: Human Primary Hepatocyte Editing % 100 ng/ml: 5.80%; Human Primary Hepatocyte Editing % 500 ng/mL: 14.87%

Same assay, conditions: 100 ng/ml; SpCas9 mRNA 1:1 by weight

Q: How did the “Human Primary Hepatocyte Editing % 100 ng/ml” value turn out when B12 was run?
A: 10.50%

Same assay, conditions: 500 ng/mL; SpCas9 mRNA 1:1 by weight

Q: B12 was tested. Which “Human Primary Hepatocyte Editing % 500 ng/mL” value did it give?
A: 24.90%

Each molecule was assayed on ANGPTL3 gene (assay: ANGPTL3 gRNA/SpCas9 editing in primary cynomolgus hepatocytes (Table 3)). Settings: not given.
Format: cell-based, cynomolgus monkey
Method: as §1, §2

Q: With B1 as the molecule, how does the “Cyno Primary Hepatocyte Editing % 100 ng/mL” value read?
A: 14.60%

Q: And the “Cyno Primary Hepatocyte Editing % 500 ng/ml” value?
A: 25.90%

Q: With B2 as the molecule, how does the “Cyno Primary Hepatocyte Editing % 100 ng/mL” value read?
A: 28.01%

Q: And the “Cyno Primary Hepatocyte Editing % 500 ng/ml” value?
A: 30.57%

Q: For B3, which “Cyno Primary Hepatocyte Editing % 100 ng/mL” value is on record?
A: 0.19%

Q: What about the “Cyno Primary Hepatocyte Editing % 500 ng/ml” value of the same molecule?
A: 32.55%

Q: What does the source list for B4?
A: Cyno Primary Hepatocyte Editing % 100 ng/mL: 18.77%; Cyno Primary Hepatocyte Editing % 500 ng/ml: 30.34%

Q: For B5, which “Cyno Primary Hepatocyte Editing % 100 ng/mL” value is on record?
A: 15%

Q: What about the “Cyno Primary Hepatocyte Editing % 500 ng/ml” value of the same molecule?
A: 26%

Q: B6 was tested. Which “Cyno Primary Hepatocyte Editing % 100 ng/mL” value did it give?
A: 10.10%

Q: What about the “Cyno Primary Hepatocyte Editing % 500 ng/ml” value of the same molecule?
A: 27.57%

Q: B7 was tested. Which “Cyno Primary Hepatocyte Editing % 100 ng/mL” value did it give?
A: 14.84%

Q: What about the “Cyno Primary Hepatocyte Editing % 500 ng/ml” value of the same molecule?
A: 21.16%

Q: B8 was tested. Which “Cyno Primary Hepatocyte Editing % 100 ng/mL” value did it give?
A: 11.32%

Q: And the “Cyno Primary Hepatocyte Editing % 500 ng/ml” value?
A: 38.91%

Q: With B9 as the molecule, how does the “Cyno Primary Hepatocyte Editing % 100 ng/mL” value read?
A: 19.89%

Q: What about the “Cyno Primary Hepatocyte Editing % 500 ng/ml” value of the same molecule?
A: 33.67%

Q: Which results are given for B10?
A: Cyno Primary Hepatocyte Editing % 100 ng/mL: 28.57%; Cyno Primary Hepatocyte Editing % 500 ng/ml: 69.75%

Q: Which results are given for B11?
A: Cyno Primary Hepatocyte Editing % 100 ng/mL: 5.49%; Cyno Primary Hepatocyte Editing % 500 ng/ml: 10.32%

Same assay, conditions: 100 ng/mL; SpCas9 mRNA 1:1 by weight

Q: Which “Cyno Primary Hepatocyte Editing % 100 ng/mL” value does the source give for B12 here?
A: 20.09%

Same assay, conditions: 500 ng/ml; SpCas9 mRNA 1:1 by weight

Q: How did the “Cyno Primary Hepatocyte Editing % 500 ng/ml” value turn out when B12 was run?
A: 27.59%
